Source: patent publication US20040121323, “Mrna binding motif” (published 2004)

Key:
Grb7 PH-SH2 fragment = Grb7 PH-SH2 fragment (Homo sapiens, UniProt Q14451 Q14451:229-532); assay: EMSA; details: tags: GST; label: 32P
[1] = target: T1, Grb14 SH2 domain (aa 426-540) (Homo sapiens, UniProt Q14449 Q14449:426-540); assay: EMSA; details: tags: GST; label: 32P
T1 sequence: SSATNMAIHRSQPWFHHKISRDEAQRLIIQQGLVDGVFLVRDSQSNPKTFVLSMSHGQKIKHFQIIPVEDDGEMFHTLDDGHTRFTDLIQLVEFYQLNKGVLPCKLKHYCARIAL

Chain of Grb7 PH-SH2 fragment (Q14451 229-532, one chain of several): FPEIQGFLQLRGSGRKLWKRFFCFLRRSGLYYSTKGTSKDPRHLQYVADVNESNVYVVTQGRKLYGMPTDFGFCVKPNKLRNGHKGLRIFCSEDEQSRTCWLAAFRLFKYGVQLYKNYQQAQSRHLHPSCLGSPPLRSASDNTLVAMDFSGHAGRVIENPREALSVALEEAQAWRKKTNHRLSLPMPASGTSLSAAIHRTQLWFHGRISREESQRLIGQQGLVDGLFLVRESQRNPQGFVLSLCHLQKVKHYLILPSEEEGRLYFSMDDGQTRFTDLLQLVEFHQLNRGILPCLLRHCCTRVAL

B1: erbB-2 3'-UTR U-rich probe (ssRNA)
RNA: UUUGUACAGAGUGCUUUUCUGUUUAGUUUUUACUUUUUUUGUUUUGUUUUUUUAAAGACGAAAUAAAGA
- binding result (Grb7 PH-SH2 fragment): binds
- binding result [1]: binds
